Source: paper PMC11050165

Target: Haemophilus influenzae tellurite-resistance protein A (HiTehA) (Haemophilus influenzae) (UniProt P44741)
Assay: cryo-EM structure; single-particle cryo-EM at 200 kV (Glacios, Falcon 4) of purified HiTehA at 3.0 mg/mL in detergent micelles (DDM, GDN, LMNG or OG); C3 symmetry imposed; no binding protein used

stoichiometry N: 3
Substance: Haemophilus influenzae tellurite-resistance protein A (HiTehA) (from UniProt P44741 1-328) (natural protein)
